# Experimental data as given in patent US20030104423.
# Changes are numbered by the printed parent chain. Numbers in names are those of the source.
# B1: β′ mutant R297L (protein)
# chain: MKDLLKFLKAQTKTEEFDAIKIALASPDMIRSWSFGEVKKPETINYRTFKPERDGLFCARIFGPVKDYECLCGKYKRLKHRGVICEKCGVEVTQTKVRRERMGHIELASPTAHIWFLKSLPSRIGLLLDMPLRDIERVLYFESYVVIEGGMTNLERQQILTEEQYLDALEEFGDEFDAKMGAEAIQALLKSMDLEQECEQLREELNETNSETKRKKLTKRIKLLEAFVQSGNKPEWMILTVLPVLPPDLRPLVPLDGGRFATSDLNDLYRRVINRNNRLKRLLDLAAPDIIVRNEKLMLQEAVDALLDNGRRGRAITGS
# B2: β′ mutant N274P (protein)
# chain: B1 chain with N274P, L297R
# B3: β′ mutant R270L (protein)
# chain: B1 chain with R270L, L297R
# B4: β′ mutant E301K (protein)
# chain: B1 chain with L297R, E301K
# B5: β′ mutant L299D (protein)
# chain: B1 chain with L297R, L299D
# B6: β′ mutant N274D (protein)
# chain: B1 chain with N274D, L297R
# B7: β′ mutant V272D (protein)
# chain: B1 chain with V272D, L297R
# B8: β′ mutant E301P (protein)
# chain: B1 chain with L297R, E301P
# Molecular target: σ70, native, untagged (pLN12), P00579
# Sequence (P00579 whole entry): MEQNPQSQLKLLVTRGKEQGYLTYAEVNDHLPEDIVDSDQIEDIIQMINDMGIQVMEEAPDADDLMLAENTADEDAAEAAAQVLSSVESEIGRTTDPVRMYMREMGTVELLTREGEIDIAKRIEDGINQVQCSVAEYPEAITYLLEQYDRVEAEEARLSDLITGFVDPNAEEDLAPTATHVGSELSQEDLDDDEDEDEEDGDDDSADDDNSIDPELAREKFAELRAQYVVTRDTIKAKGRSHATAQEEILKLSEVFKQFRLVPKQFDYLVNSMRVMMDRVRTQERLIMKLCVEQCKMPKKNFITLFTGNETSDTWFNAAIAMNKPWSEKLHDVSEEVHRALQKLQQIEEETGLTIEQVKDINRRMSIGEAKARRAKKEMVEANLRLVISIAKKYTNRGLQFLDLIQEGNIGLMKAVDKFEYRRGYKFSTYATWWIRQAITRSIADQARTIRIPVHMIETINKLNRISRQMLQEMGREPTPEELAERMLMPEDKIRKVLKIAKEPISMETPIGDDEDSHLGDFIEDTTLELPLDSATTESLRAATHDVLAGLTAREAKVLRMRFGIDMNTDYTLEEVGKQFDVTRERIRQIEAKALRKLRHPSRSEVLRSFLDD
row,Protein,Growth at 42° C. with plasmid β′ as sole source of β′ (strain RL602)
1,B1,-
2,B2,-
3,B3,+
4,B4,+
5,B5,-
6,B6,+
7,B7,-
8,B8,-
